According to US20150344570A1 (published 2015):

T1: FcγRIIb (human, UniProt P31994 43-217)
T1 construct: extracellular domain; also called FcgRIIb; 2b
T1 sequence (looked up): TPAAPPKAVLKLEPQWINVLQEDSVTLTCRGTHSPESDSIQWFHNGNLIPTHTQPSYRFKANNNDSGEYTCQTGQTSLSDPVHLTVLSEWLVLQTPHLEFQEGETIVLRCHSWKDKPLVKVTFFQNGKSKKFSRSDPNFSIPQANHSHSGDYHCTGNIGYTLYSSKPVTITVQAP

T2: FcγRIIa H (human, UniProt P12318 34-217)
T2 construct: extracellular domain; also called FcgRIIa H; FcγRIIa type H
T2 sequence (looked up): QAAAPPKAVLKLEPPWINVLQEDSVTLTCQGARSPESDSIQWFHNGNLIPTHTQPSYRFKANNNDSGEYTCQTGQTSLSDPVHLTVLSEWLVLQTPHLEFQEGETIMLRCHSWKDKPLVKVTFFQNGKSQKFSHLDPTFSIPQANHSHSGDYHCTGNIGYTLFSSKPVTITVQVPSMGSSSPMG

B1: GpH7-A5/GpH7-B3 variant G237_05P/GpL16-k0 (antibody, human IgG1, kappa)
heavy 1: not shown
heavy 2: not shown
light: DIVMTQSPLSLPVTPGEPASISCQASESLVHSNRNTYLHWYLQKPGQSPQLLIYKVSNRFSGVPDRFSGSGSGTDFTLKISRVEAEDVGVYYCSQNTHVPPTFGQGTKVEIERTVAAPSVFIFPPSDEQLKSGTASVVCLLNNFYPREAKVQWKVDNALQSGNSQESVTEQDSKDSTYSLSSTLTLSKADYEKHKVYACEVTHQGLSSPVTKSFNRGEC
notes: Heterodimerized antibody, alteration in one H chain only; also called He Ab G237P
B2: GpH7-A5/GpH7-B3 variant S267_06M/GpL16-k0 (antibody, human IgG1, kappa)
heavy 1: not shown
heavy 2: not shown
light: B1 light
notes: Heterodimerized antibody, alteration in one H chain only; also called He Ab S267M
B3: GpH7-A5/GpH7-B3 variant S298_19Q/GpL16-k0 (antibody, human IgG1, kappa)
heavy 1: not shown
heavy 2: not shown
light: B1 light
notes: heterodimerized IgG1, mutation in one H chain; also called He Ab
B4: GpH7-A5/GpH7-B3 variant S267_01G/GpL16-k0 (antibody, human IgG1, kappa)
heavy 1: not shown
heavy 2: not shown
light: B1 light
notes: Heterodimerized antibody, alteration in one H chain only; also called He Ab S267G
B5: GpH7-A5/GpH7-B3 variant H268_05P/GpL16-k0 (antibody, human IgG1, kappa)
heavy 1: not shown
heavy 2: not shown
light: B1 light
notes: Heterodimerized antibody, alteration in one H chain only; also called He Ab H268P
B6: GpH7-A5/GpH7-B3 variant S298_16H/GpL16-k0 (antibody, human IgG1, kappa)
heavy 1: not shown
heavy 2: not shown
light: B1 light
notes: as for B3
B7: GpH7-A5/GpH7-B3 variant S239_06M/GpL16-k0 (antibody, human IgG1, kappa)
heavy 1: not shown
heavy 2: not shown
light: B1 light
notes: Heterodimerized antibody, alteration in one H chain only; also called He Ab S239M
B8: GpH7-A5/GpH7-B3 variant K326_05P/GpL16-k0 (antibody, human IgG1, kappa)
heavy 1: not shown
heavy 2: not shown
light: B1 light
notes: Heterodimerized antibody, alteration in one H chain only; also called He Ab K326P
B9: GpH7-A5/GpH7-B3 variant K326_08L/GpL16-k0 (antibody, human IgG1, kappa)
heavy 1: not shown
heavy 2: not shown
light: B1 light
notes: Heterodimerized antibody, alteration in one H chain only; also called He Ab K326L
B10: GpH7-A5/GpH7-B3 variant S298_14T/GpL16-k0 (antibody, human IgG1, kappa)
heavy 1: not shown
heavy 2: not shown
light: B1 light
notes: as for B3
B11: GpH7-A5/GpH7-B3 variant S239_01G/GpL16-k0 (antibody, human IgG1, kappa)
heavy 1: not shown
heavy 2: not shown
light: B1 light
notes: Heterodimerized antibody, alteration in one H chain only; also called He Ab S239G
B12: GpH7-A5/GpH7-B3 variant S239_07I/GpL16-k0 (antibody, human IgG1, kappa)
heavy 1: not shown
heavy 2: not shown
light: B1 light
notes: Heterodimerized antibody, alteration in one H chain only; also called He Ab S239I
B13: GpH7-A5/GpH7-B3 variant S324_08L/GpL16-k0 (antibody, human IgG1, kappa)
heavy 1: not shown
heavy 2: not shown
light: B1 light
notes: as for B3
B14: GpH7-A5/GpH7-B3 variant P271_08L/GpL16-k0 (antibody, human IgG1, kappa)
heavy 1: not shown
heavy 2: not shown
light: B1 light
notes: Heterodimerized antibody, alteration in one H chain only; also called He Ab P271L
B15: GpH7-A5/GpH7-B3 variant H268_01G/GpL16-k0 (antibody, human IgG1, kappa)
heavy 1: not shown
heavy 2: not shown
light: B1 light
notes: Heterodimerized antibody, alteration in one H chain only; also called He Ab H268G
B16: GpH7-A5/GpH7-B3 variant P238_10E/GpL16-k0 (antibody, human IgG1, kappa)
heavy 1: not shown
heavy 2: not shown
light: B1 light
notes: Heterodimerized antibody, alteration in one H chain only; also called He Ab P238E
B17: GpH7-A5/GpH7-B3 variant S324_20W/GpL16-k0 (antibody, human IgG1, kappa)
heavy 1: not shown
heavy 2: not shown
light: B1 light
notes: as for B3
B18: GpH7-A5/GpH7-B3 variant S267_08L/GpL16-k0 (antibody, human IgG1, kappa)
heavy 1: not shown
heavy 2: not shown
light: B1 light
notes: Heterodimerized antibody, alteration in one H chain only; also called He Ab S267L
B19: GpH7-A5/GpH7-B3 variant K326_04F/GpL16-k0 (antibody, human IgG1, kappa)
heavy 1: not shown
heavy 2: not shown
light: B1 light
notes: Heterodimerized antibody, alteration in one H chain only; also called He Ab K326F
B20: GpH7-A5/GpH7-B3 variant P238_09D/GpL16-k0 (antibody, human IgG1, kappa)
heavy 1: not shown
heavy 2: not shown
light: B1 light
notes: Heterodimerized antibody, alteration in one H chain only; also called He Ab P238D
B21: GpH7-A5/GpH7-B3 variant P271_10E/GpL16-k0 (antibody, human IgG1, kappa)
heavy 1: not shown
heavy 2: not shown
light: B1 light
notes: Heterodimerized antibody, alteration in one H chain only; also called He Ab P271E
B22: GpH7-A5/GpH7-B3 variant S324_19Q/GpL16-k0 (antibody, human IgG1, kappa)
heavy 1: not shown
heavy 2: not shown
light: B1 light
notes: as for B3
B23: GpH7-A5/GpH7-B3 variant H268_03V/GpL16-k0 (antibody, human IgG1, kappa)
heavy 1: not shown
heavy 2: not shown
light: B1 light
notes: Heterodimerized antibody, alteration in one H chain only; also called He Ab H268V
B24: GpH7-A5/GpH7-B3 variant P238_08L/GpL16-k0 (antibody, human IgG1, kappa)
heavy 1: not shown
heavy 2: not shown
light: B1 light
notes: Heterodimerized antibody, alteration in one H chain only; also called He Ab P238L

Key:
FcγRIIb = target: T1, FcγRIIb; test: SPR (Biacore), antibody captured, FcγR analyte; binding relative to GpH7-A5/GpH7-B3/GpL16-k0 = 100
FcγRIIa H = target: T2, FcγRIIa H; test: as above
FcγRIa = target: T3, FcγRIa (human, UniProt P12314 16-292); test: SPR (Biacore), captured antibody, FcγRIa analyte; relative to HeCon Ab GpH7-A5/GpH7-B3/GpL16-k0 = 100
T3 construct: extracellular domain; soluble extracellular domain with C-terminal His tag, expressed in FreeStyle293 cells; also called FcgRI; FcgRIa
T3 sequence (P12314 16-292): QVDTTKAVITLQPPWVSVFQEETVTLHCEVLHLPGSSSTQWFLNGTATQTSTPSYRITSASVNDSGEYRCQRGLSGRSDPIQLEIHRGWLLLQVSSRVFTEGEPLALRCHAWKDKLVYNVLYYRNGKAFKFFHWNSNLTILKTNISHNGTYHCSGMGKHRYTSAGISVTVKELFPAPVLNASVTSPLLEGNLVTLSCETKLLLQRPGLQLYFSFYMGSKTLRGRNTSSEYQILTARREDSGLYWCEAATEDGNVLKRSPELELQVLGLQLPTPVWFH

| Binder | He/Con_2b (FcγRIIb) | He/Con_2aH (FcγRIIa H) | He/Con_1a (FcγRIa) |
| --- | --- | --- | --- |
| B1 | 24.6 % of control |  |  |
| B2 | 210 % of control | 34.3 % of control |  |
| B3 |  |  | 109 % of control |
| B4 | 105 % of control | 71.3 % of control |  |
| B5 | 116 % of control | 81.8 % of control |  |
| B6 |  |  | 109 % of control |
| B7 | 101 % of control | 98.6 % of control |  |
| B8 | 126 % of control | 98.8 % of control |  |
| B9 | 177 % of control | 92.7 % of control |  |
| B10 |  |  | 107 % of control |
| B11 | 144 % of control | 97 % of control |  |
| B12 | 107 % of control | 91.5 % of control |  |
| B13 |  |  | 103 % of control |
| B14 | 103 % of control | 86.7 % of control |  |
| B15 | 144 % of control | 99.2 % of control |  |
| B16 | 232 % of control | 77.1 % of control |  |
| B17 |  |  | 114 % of control |
| B18 | 109 % of control | 29 % of control |  |
| B19 | 155 % of control | 97 % of control |  |
| B20 | 221 % of control | 87.5 % of control |  |
| B21 | 109 % of control | 63.1 % of control |  |
| B22 |  |  | 112 % of control |
| B23 | 114 % of control | 99.2 % of control |  |
| B24 | 204 % of control | 84.6 % of control |  |
